Test results reported in US20250243290A1.
“And” between values parts separate entries of the source, which are not always exact repeats. Equal values may be shown once. Read-outs that look alike come from different tables or passages of the source.

Assays:
Assay in all cases: peptide-array ELISA [Con't]
2…2R = molecular target: 2…2R
[1] = molecular target: 2…
[2] = molecular target: C2…2…
CAPEPGST2…2TSTSPTRC = molecular target: CAPEPGST2…2TSTSPTRC
[3] = molecular target: CAPEPGST2…2…
CAPLRK2…2TREQNRI2T2RPC = molecular target: CAPLRK2…2TREQNRI2T2RPC
[4] = molecular target: CAPLRK2…2…
[5] = molecular target: CDQVETQA2…2…
[6] = molecular target: CG2RL2APLRK2RPGFCQA2TREQNRI2T2RPC
CLSKQEG2RL2…2RLC = molecular target: CLSKQEG2RL2…2RLC
[7] = molecular target: CQA2TREQNRI2T2RPCAPLRK2…
[8] = molecular target: CSR2…2TRCAPLRK2…
[9] = molecular target: ETSDVV2…
LS2…2R = molecular target: LS2…2R
[10] = molecular target: LS2…2…
PE2LS2…2TREQNRIC = molecular target: PE2LS2…2TREQNRIC
REQNRI2…2R = molecular target: REQNRI2…2R
S2…2TREQNRIC = molecular target: S2…2TREQNRIC
SCGSR2…2 = molecular target: SCGSR2…2
[11] = molecular target: SDVV2…
[12] = molecular target: SKQEGCRL2APGGSGGL2…
TREQNRI2…2RL = molecular target: TREQNRI2…2RL
TREQNRI2…2R = molecular target: TREQNRI2…2R
[13] = molecular target: V2…
VPE2LS2…2…2 = molecular target: VPE2LS2…2…2
[14] = molecular target: VV2…
[15] = molecular target: WNWVPE2…
…2GGSGGQA2TREQNRIC = molecular target: …2GGSGGQA2TREQNRIC
…2R = molecular target: …2R
…2SK2SPGQH = molecular target: …2SK2SPGQH
…2TREQNRIC [16] = molecular target: …2TREQNRIC
[17] = molecular target: …2TSCAPLRK2…
[18] = molecular target: …2…
2LSCGSR2…2T2 = molecular target: 2LSCGSR2…2T2
2…2TREQNRIC = molecular target: 2…2TREQNRIC
[19] = molecular target: 2…; remark: listed apart in the source
[20] = molecular target: C22SK2…2CAV2…
CDVV2KP2…2TSTSPTRC = molecular target: CDVV2KP2…2TSTSPTRC
CG2RL2APLRK2…22SK2C = molecular target: CG2RL2APLRK2…22SK2C
CGSR2…2 = molecular target: CGSR2…2
[21] = molecular target: CNASMDAV2…2…
[22] = molecular target: CQTAQM22SK2SPGQHCQA2TREQNRI2T2RPC
CQTAQM22SK2…2RLC = molecular target: CQTAQM22SK2…2RLC
CTSSTDI2RPHQI2…2TSTSPTRC = molecular target: CTSSTDI2RPHQI2…2TSTSPTRC
[23] = molecular target: E2LSCGSR2…
[24] = molecular target: LSCGSR2…
[25] = molecular target: PE2LSCGSR2…
S2…2RPGW = molecular target: S2…2RPGW
[26] = molecular target: WVPE2…
[27] = molecular target: Y2…
…2SK2SPGQ = molecular target: …2SK2SPGQ
…2TREQNRIC [28] = molecular target: …2TREQNRIC; remark: listed apart in the source
…2TSTSPTRC = molecular target: …2TSTSPTRC
Sequence of …2TSTSPTRC (peptide, as listed by the source): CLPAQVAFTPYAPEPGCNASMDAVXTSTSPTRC

Sequence of LSCGSR2… (peptide, as listed by the source): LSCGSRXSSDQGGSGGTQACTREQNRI
Sequence of …2R (peptide, as listed by the source): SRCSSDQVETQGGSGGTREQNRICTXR
Sequence of …2… (peptide, as listed by the source): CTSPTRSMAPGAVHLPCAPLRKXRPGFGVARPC
Sequence of WNWVPE2… (peptide, as listed by the source): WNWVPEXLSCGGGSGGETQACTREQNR
Sequence of Y2… (peptide, as listed by the source): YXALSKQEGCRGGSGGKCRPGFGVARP

agonistic TNFR2 antibody MR2-1
Raw luminescence data (2…2R): 223 | Raw luminescence data [1]: 208 | Raw luminescence data [2]: 194 | Raw luminescence data (CAPEPGST2…2TSTSPTRC): 213 | Raw luminescence data [3]: 196 | Raw luminescence data (CAPLRK2…2TREQNRI2T2RPC): 220 | Raw luminescence data [4]: 223 | Raw luminescence data [5]: 201 | Raw luminescence data [6]: 215 | Raw luminescence data (CLSKQEG2RL2…2RLC): 198 | Raw luminescence data [7]: 204 | Raw luminescence data [8]: 210 | Raw luminescence data [9]: 197 | Raw luminescence data (LS2…2R): 218 | Raw luminescence data [10]: 198 | Raw luminescence data (PE2LS2…2TREQNRIC): 224 | Raw luminescence data (REQNRI2…2R): 210 | Raw luminescence data (S2…2TREQNRIC): 191 | Raw luminescence data (SCGSR2…2): 192 | Raw luminescence data [11]: 203 and 196 | Raw luminescence data [12]: 224 | Raw luminescence data (TREQNRI2…2RL): 206 | Raw luminescence data (TREQNRI2…2R): 205 | Raw luminescence data [13]: 222 and 197 | Raw luminescence data (VPE2LS2…2…2): 206 | Raw luminescence data [14]: 209 | Raw luminescence data [15]: 220 | Raw luminescence data (…2GGSGGQA2TREQNRIC): 206 | Raw luminescence data (…2R): 200 | Raw luminescence data (…2SK2SPGQH): 194 | Raw luminescence data (…2TREQNRIC [16]): 207 and 192 | Raw luminescence data [17]: 197 | Raw luminescence data [18]: 192 | Raw luminescence data (2LSCGSR2…2T2): 179 | Raw luminescence data (2…2TREQNRIC): 184 | Raw luminescence data [19]: 179 | Raw luminescence data [20]: 181 | Raw luminescence data (CDVV2KP2…2TSTSPTRC): 191 | Raw luminescence data (CG2RL2APLRK2…22SK2C): 183 | Raw luminescence data (CGSR2…2): 172 | Raw luminescence data [21]: 173 | Raw luminescence data [22]: 176 | Raw luminescence data (CQTAQM22SK2…2RLC): 179 | Raw luminescence data (CTSSTDI2RPHQI2…2TSTSPTRC): 181 | Raw luminescence data [23]: 189 | Raw luminescence data [24]: 181 | Raw luminescence data [25]: 180 | Raw luminescence data (S2…2RPGW): 177 | Raw luminescence data [26]: 186 and 181 | Raw luminescence data [27]: 175 | Raw luminescence data (…2SK2SPGQ): 181 and 173 | Raw luminescence data (…2TREQNRIC [28]): 176 | Raw luminescence data (…2TSTSPTRC): 172
